# Assay results: article PMC3313934, “Pinpointing P450s Associated with Pyrethroid Metabolism in the Dengue Vector, Aedes aegypti: Developing New Tools to Combat Insecticide Resistance” (PLoS Neglected Tropical Diseases, 2012)
# How the values were obtained:
# CYP6Z2 = molecular target: T1, CYP6Z2 (Anopheles gambiae, UniProt A8I285); test: resorufin fluorescence turnover, recombinant membranes; type: biochemical; conditions: 5 µM substrate, NADPH regeneration, cyt b5, 0.1 M KPi pH 7.4, 25°C
# T1 construct: recombinant membrane preparation from earlier work; cytochrome b5 added
# T1 sequence (A8I285 1-492): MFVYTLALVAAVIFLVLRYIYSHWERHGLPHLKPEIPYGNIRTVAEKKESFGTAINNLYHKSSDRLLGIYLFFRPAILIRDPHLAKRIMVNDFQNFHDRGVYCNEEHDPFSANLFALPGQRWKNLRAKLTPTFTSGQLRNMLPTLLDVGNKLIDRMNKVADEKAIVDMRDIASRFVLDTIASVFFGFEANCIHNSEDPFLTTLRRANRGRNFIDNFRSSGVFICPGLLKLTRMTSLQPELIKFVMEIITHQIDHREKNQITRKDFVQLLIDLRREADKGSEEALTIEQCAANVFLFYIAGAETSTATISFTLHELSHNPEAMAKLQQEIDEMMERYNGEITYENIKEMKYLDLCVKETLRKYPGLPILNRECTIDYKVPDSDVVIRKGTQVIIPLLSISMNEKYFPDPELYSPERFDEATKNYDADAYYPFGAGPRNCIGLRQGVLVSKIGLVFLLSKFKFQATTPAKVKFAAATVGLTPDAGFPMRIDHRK
# [1] = substrate: CC1(C)[C@H](C(=O)O[C@H](C#N)c2cccc(Oc3ccccc3)c2)[C@@H]1C=C(Br)Br; test: HPLC substrate depletion, recombinant E. coli membranes, Michaelis-Menten fit; type: biochemical, Aedes aegypti; conditions: 0.1 µM P450, 0.8 µM cyt b5, NADPH regeneration, 200 mM Tris-HCl pH 7.4, 30°C, 10 min, apparent
# Description: (§1) HPLC substrate depletion, recombinant E. coli membranes, Michaelis-Menten fit on CYP9J32
# [2] = substrate: CC1(C)C(C=C(Cl)Cl)C1C(=O)OCc1cccc(Oc2ccccc2)c1; test: as above; type: biochemical, Aedes aegypti; conditions: 0.1 µM P450, 0.8 µM cyt b5, NADPH regeneration, 200 mM Tris-HCl pH 7.4, 30°C, 10 min, apparent
# Description: as §1
# [3] = substrate: CC1(C)[C@H](C(=O)O[C@H](C#N)c2cccc(Oc3ccccc3)c2)[C@@H]1C=C(Br)Br; test: as above; type: biochemical, Aedes aegypti; conditions: 0.1 µM P450, 0.8 µM cyt b5, NADPH regeneration, 200 mM Tris-HCl pH 7.4, 30°C, 10 min, apparent; remark: listed apart in the source
# Description: (§2) HPLC substrate depletion, recombinant E. coli membranes, Michaelis-Menten fit on CYP9J26
# [4] = substrate: CC1(C)C(C=C(Cl)Cl)C1C(=O)OCc1cccc(Oc2ccccc2)c1; test: as above; type: biochemical, Aedes aegypti; conditions: 0.1 µM P450, 0.8 µM cyt b5, NADPH regeneration, 200 mM Tris-HCl pH 7.4, 30°C, 10 min, apparent; remark: listed apart in the source
# Description: as §2
molecule,measurement,setting,value
COc1ccc2nc3ccc(=O)cc-3oc2c1 [RME],"resorufin fluorescence turnover, recombinant membranes",CYP6Z2,greatest activity towards RME for the resorufin ethers and L-ME for the proluciferins
"CYP9J32 (Aedes aegypti) (protein, full-length, ompA leader with Ala-Gly linker at N-terminus, E. coli DH5alpha membranes; co-expressed An. gambiae CPR, added An. gambiae cytochrome b5) VIYRQVKKHYDYFHDKPIPSMATVPLLGSTGPLMTKRCTFNDFIQTIYNKYPSAKIFGLFDMTTKMFVLRDPEVIKKITVKDFEYFVDRRPLFGANKEDDGNENILFNKTLVGMVDQRWRDMRAILSPAFTGSKMRAMFELIEQYCTQMVPILKEQSAESGYVDYEMKDFFSRVANDIIATCAFGLQVESLKSRDNEFYTMGKQMMNFNRFIVLLRVMGLRFFPSLMIKMGVDIVDREQNQYFSKIIKEAVRARETHGIVRPDMIHLLMQARKGTLKHQQETTESTAGFATVEESDVGKSVVSKTMSEPEFIAQCLIFFLAGFDTVSTGMLFMAYELALNPDIQQKLYEEIAQTNKELGGKPATYDTLQKMKYMDMVVSESLRMWPVAAFDRKCGRDYVLDDGAGLKFTIDAGTCIWVPVYGIHRDPKYYPNPDKFEPERFSDENRGKIDMTMYMPFGMGPRNCIGSRFALMEIKAIMYALLLNFSIERNEKTQVPLKLVKGFVGLQVENGLHLRFKKRK",Km,[1],5.2 ± 2.1 µM
same,kcat,[1],0.05 ± 0.00833 s⁻¹
same,Km,[2],2.3 ± 1.1 µM
same,kcat,[2],0.0133 ± 0.00167 s⁻¹
"CYP9J26 (Aedes aegypti) (protein, full-length, ompA-Ala-Pro leader at N-terminus, pCW-ori+, E. coli DH5alpha membranes; co-expressed An. gambiae CPR, added An. gambiae cytochrome b5) MEVELLHVGVLVAIVAFLYRWITRNNDYFHDKPIPSMAVTPFLGASGPLLLRKVTFNDFVQSIYNKYPGVKVFGMFDTITPFFVIRDPELIKQIGIKDFDHFVDHRPTFGLDDETAEHPKALFRKTLFSMTGQRWKEMRATLSPAFTGSKMRQMFSLMSECCDEMMKHYLDKAKGSGRVEVEMKDLLSRISINVIASCAFGIKVDCFKEQEHEFLYHGRKMMGFGRPIVIARMLAMRVFPKFAAKFGIDLLDREQANYFTHVFQETIRARESHGYIRHDMIDLLLQARKGTLKYQEEKDDQEGFATVQESDVGKADVSKSMTEAEMIAQCLIFFLGGFDTVSTCAMFTAYELVRNPEVQHKLYEEIKQTEKELEGKPLSYDALQKMKYMDMVVSETLRMWPLAPATDRLCTQDYTIDDGQGVRFTIDKGTCVWFPAAGLHHDPQYFPNPEKFDPERFNDENKRNINLGAYLPFGIGPRNCIGSRFALMEVKAVMYFILLKFSFVRGAKTQIPMQLRKGFTNLGPENGMHVELKLR",Km,[3],1.2 ± 0.2 µM
same,kcat,[3],0.00367 ± 0.000167 s⁻¹
same,Km,[4],4.2 ± 0.9 µM
same,kcat,[4],0.01 ± 0.00167 s⁻¹
